Key:
purified protein [1] = substrate: CC#CC(=O)C(=O)O; experiment: purified protein; format: biochemical, coryneform bacterium; conditions: 20 mM sodium phosphate buffer, pH 9.0, 24 °C
purified protein [2] = substrate: CC#CC(=O)C(=O)O; experiment: purified protein; format: biochemical, Pseudomonas pavonaceae; conditions: 20 mM sodium phosphate buffer, pH 9.0, 24 °C

Protein	Km (purified protein [1])	kcat (purified protein [1])	kcat/Km (purified protein [1])	Km (purified protein [2])	kcat (purified protein [2])	kcat/Km (purified protein [2])
FG41 MSAD (coryneform bacterium) (protein) PLIRIDLTSDRSREQRRAIADAVHDALVEVLAIPARDRFQILTAHDPSDIIAEDAGLGFQRSPSVVIIHVFTQAGRTIETKQRVFAAITESLAPIGVAGSDVFIAITENAPHDWSFGFGSAQYVTGELAIPATGAA	7.3 ± 0.8 mM	0.17 ± 0.01 s⁻¹	20 M⁻¹ s⁻¹			
FG41 MSAD (coryneform bacterium; Q73R) (protein) PLIRIDLTSDRSREQRRAIADAVHDALVEVLAIPARDRFQILTAHDPSDIIAEDAGLGFQRSPSVVIIHVFTRAGRTIETKQRVFAAITESLAPIGVAGSDVFIAITENAPHDWSFGFGSAQYVTGELAIPATGAA	6.6 ± 1.5 mM	1.2 ± 0.2 s⁻¹	180 M⁻¹ s⁻¹			
FG41 MSAD (coryneform bacterium; Y123F) (protein) PLIRIDLTSDRSREQRRAIADAVHDALVEVLAIPARDRFQILTAHDPSDIIAEDAGLGFQRSPSVVIIHVFTQAGRTIETKQRVFAAITESLAPIGVAGSDVFIAITENAPHDWSFGFGSAQFVTGELAIPATGAA	21 ± 5 mM	0.7 ± 0.1 s⁻¹	30 M⁻¹ s⁻¹			
Pp MSAD (Pseudomonas pavonaceae) (protein) PLLKFDIFYGRTDAQIKSLLDAAHGAMVDAFGVPANDRYQTVSQHRPGEMVLEDTGLGYGRSSAVVLLTVISRPRSEEQKVCFYKLLTGALERDCGISPDDVIVALVENSDADWSFGRGRAEFLTGDLV				3 ± 1.2 mM	3.4 ± 0.8 s⁻¹	1130 M⁻¹ s⁻¹
